The term Kd denotes the equilibrium constant for the complex coming apart. A low value points to a tighter complex.

The record followed here is article PMC2114528.

Assay [1] has as its target ECGF receptor (Mr 150,000 polypeptide) on LEII cells (mouse (endogenous in LEII cells)) (UniProt P16092). Kind of assay: radioligand binding.
Assay [2] shares this target. Kind of assay: radioligand binding. This is another data set of the same source.

Read-outs that look alike come from different tables or passages of the source.

Chain of UniProt P16092 (P16092 22-822): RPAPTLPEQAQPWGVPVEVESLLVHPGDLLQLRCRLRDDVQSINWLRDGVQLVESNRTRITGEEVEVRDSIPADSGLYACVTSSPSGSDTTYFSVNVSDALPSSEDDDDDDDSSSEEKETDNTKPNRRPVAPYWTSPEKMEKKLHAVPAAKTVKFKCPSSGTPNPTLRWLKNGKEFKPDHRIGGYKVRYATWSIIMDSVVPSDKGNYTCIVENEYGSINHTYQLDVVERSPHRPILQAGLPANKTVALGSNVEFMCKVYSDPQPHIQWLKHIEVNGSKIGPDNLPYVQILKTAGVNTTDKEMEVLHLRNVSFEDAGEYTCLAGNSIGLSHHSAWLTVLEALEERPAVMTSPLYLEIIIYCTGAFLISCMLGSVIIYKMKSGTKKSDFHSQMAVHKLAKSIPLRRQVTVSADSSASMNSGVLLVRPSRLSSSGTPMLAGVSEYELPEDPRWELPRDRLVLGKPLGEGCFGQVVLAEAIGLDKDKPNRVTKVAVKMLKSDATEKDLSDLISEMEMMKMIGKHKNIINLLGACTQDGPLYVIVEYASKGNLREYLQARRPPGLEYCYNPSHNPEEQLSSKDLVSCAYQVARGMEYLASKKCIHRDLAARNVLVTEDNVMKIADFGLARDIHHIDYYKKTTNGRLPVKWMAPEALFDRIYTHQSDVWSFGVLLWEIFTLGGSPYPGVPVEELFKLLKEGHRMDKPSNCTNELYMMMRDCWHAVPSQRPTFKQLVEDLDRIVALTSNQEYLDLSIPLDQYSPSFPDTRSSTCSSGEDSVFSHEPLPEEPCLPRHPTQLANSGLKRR

In the case of “alpha-endothelial cell growth factor (ligand)”, the Kd was found to be 0.2 nM in assay [1] and 0.25 nM in assay [2].
